B1: Transmembrane protein 43 (Homo sapiens), Q9BTV4 (parent)
chain: MAANYSSTSTRREHVKVKTSSQPGFLERLSETSGGMFVGLMAFLLSFYLIFTNEGRALKTATSLAEGLSLVVSPDSIHSVAPENEGRLVHIIGALRTSKLLSDPNYGVHLPAVKLRRHVEMYQWVETEESREYTEDGQVKKETRYSYNTEWRSEIINSKNFDREIGHKNPSAMAVESFMATAPFVQIGRFFLSSGLIDKVDNFKSLSLSKLEDPHVDIIRRGDFFYHSENPKYPEVGDLRVSFSYAGLSGDDPDLGPAHVVTVIARQRGDQLVPFSTKSGDTLLLLHHGDFSAEEVFHRELRSNSMKTWGLRAAGWMAMFMGLNLMTRILYTLVDWFPVFRDLVNIGLKAFAFCVATSLTLLTVAAGWLFYRPLWALLIAGLALVPILVARTRVPAKKLE
partner: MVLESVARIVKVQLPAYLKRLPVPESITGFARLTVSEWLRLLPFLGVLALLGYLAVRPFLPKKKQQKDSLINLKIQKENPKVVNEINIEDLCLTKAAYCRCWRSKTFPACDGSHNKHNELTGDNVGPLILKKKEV
B2: Catenin alpha-3 (Homo sapiens), Q9UI47-2 (parent)
chain: MSAETPITLNIDPQDLQVQTFTVEKLLEPLIIQVTTLVNCPQNPSSRKKGRSKRASVLLASVEEATWNLLDKGEKIAQEATVLKDELTASLEEVRKESEALKVSAERFTDDPCFLPKREAVVQAARALLAAVTRLLILADMIDVMCLLQHVSAFQRTFESLKNVANKSDLQKTYQKLGKELENLDYLAFKRQQDLKSPNQRDEIAGARASLKENSPLLHSICSACLEHSDVASLKASKDTVCEEIQNALNVISNASQGIQNMTTPPEPQAATLGSALDELENLIVLNPLTVTEEEIRPSLEKRLEAIISGAALLADSSCTRDLHRERIIAECNAIRQALQDLLSEYMNNAGKKERSNTLNIALDNMCKKTRDLRRQLRKAIIDHVSDSFLDTTVPLLVLIEAAKNGREKEIKEYAAIFHEHTSRLVEVANLACSMSTNEDGIKIVKIAANHLETLCPQIINAALALAARPKSQAVKNTMEMYKRTWENHIHVLTEAVDDITSIDDFLAVSGMFLFF
B3: Catenin alpha-3 (Homo sapiens), Q9UI47-2 (parent)
chain: B2 chain
partner: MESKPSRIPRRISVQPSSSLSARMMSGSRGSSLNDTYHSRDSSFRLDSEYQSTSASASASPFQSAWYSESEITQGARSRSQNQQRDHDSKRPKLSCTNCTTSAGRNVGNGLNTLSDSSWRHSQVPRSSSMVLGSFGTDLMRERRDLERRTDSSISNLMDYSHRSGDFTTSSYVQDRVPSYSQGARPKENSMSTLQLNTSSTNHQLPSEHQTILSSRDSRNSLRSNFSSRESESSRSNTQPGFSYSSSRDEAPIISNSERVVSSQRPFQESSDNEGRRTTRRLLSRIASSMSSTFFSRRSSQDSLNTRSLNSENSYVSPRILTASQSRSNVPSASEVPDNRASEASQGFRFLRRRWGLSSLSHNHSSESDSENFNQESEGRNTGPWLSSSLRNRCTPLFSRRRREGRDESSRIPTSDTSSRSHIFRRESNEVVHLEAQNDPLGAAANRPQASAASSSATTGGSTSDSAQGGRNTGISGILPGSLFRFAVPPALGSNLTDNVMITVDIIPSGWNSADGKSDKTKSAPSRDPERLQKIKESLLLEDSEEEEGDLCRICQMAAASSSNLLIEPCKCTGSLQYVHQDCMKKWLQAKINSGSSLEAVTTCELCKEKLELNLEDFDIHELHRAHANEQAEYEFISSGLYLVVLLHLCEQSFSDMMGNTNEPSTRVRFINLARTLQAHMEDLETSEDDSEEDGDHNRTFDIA
B4: Catenin alpha-3 (Homo sapiens), Q9UI47-2 (parent)
chain: B2 chain
partner: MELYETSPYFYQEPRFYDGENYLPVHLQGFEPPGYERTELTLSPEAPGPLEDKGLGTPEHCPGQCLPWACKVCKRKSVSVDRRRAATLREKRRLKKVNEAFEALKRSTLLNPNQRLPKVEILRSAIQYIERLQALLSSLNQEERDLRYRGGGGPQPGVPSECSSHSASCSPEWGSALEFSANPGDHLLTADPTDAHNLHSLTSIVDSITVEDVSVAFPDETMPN
B5: Ceroid-lipofuscinosis neuronal protein 6 (Homo sapiens), Q9NWW5 (parent)
chain: MEATRRRQHLGATGGPGAQLGASFLQARHGSVSADEAARTAPFHLDLWFYFTLQNWVLDFGRPIAMLVFPLEWFPLNKPSVGDYFHMAYNVITPFLLLKLIERSPRTLPRSITYVSIIIFIMGASIHLVGDSVNHRLLFSGYQHHLSVRENPIIKNLKPETLIDSFELLYYYDEYLGHCMWYIPFFLILFMYFSGCFTASKAESLIPGPALLLVAPSGLYYWYLVTEGQIFILFIFTFFAMLALVLHQKRKRLFLDSNGLFLFSSFALTLLLVALWVAWLWNDPVLRKKYPGVIYVPEPWAFYTLHVSSRH
partner: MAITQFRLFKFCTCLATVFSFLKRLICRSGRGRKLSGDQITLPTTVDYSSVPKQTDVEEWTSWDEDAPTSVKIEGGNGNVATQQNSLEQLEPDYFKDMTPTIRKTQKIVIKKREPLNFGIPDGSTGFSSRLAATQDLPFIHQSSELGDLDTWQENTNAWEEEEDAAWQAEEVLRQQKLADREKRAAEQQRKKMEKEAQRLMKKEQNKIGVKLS
B6: Very-long-chain enoyl-CoA reductase (Homo sapiens), Q9NZ01 (parent)
chain: MKHYEVEILDAKTREKLCFLDKVEPHATIAEIKNLFTKTHPQWYPARQSLRLDPKGKSLKDEDVLQKLPVGTTATLYFRDLGAQISWVTVFLTEYAGPLFIYLLFYFRVPFIYGHKYDFTSSRHTVVHLACICHSFHYIKRLLETLFVHRFSHGTMPLRNIFKNCTYYWGFAAWMAYYINHPLYTPPTYGAQQVKLALAIFVICQLGNFSIHMALRDLRPAGSKTRKIPYPTKNPFTWLFLLVSCPNYTYEVGSWIGFAIMTQCLPVALFSLVGFTQMTIWAKGKHRSYLKEFRDYPPLRMPIIPFLL
partner: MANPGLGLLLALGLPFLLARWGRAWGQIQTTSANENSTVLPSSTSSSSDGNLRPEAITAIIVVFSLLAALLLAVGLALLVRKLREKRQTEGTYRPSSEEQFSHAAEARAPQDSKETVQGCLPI
B7: Dolichol kinase (Homo sapiens), Q9UPQ8 (parent)
chain: MTRECPSPAPGPGAPLSGSVLAEAAVVFAVVLSIHATVWDRYSWCAVALAVQAFYVQYKWDRLLQQGSAVFQFRMSANSGLLPASMVMPLLGLVMKERCQTAGNPFFERFGIVVAATGMAVALFSSVLALGITRPVPTNTCVILGLAGGVIIYIMKHSLSVGEVIEVLEVLLIFVYLNMILLYLLPRCFTPGEALLVLGGISFVLNQLIKRSLTLVESQGDPVDFFLLVVVVGMVLMGIFFSTLFVFMDSGTWASSIFFHLMTCVLSLGVVLPWLHRLIRRNPLLWLLQFLFQTDTRIYLLAYWSLLATLACLVVLYQNAKRSSSESKKHQAPTIARKYFHLIVVATYIPGIIFDRPLLYVAATVCLAVFIFLEYVRYFRIKPLGHTLRSFLSLFLDERDSGPLILTHIYLLLGMSLPIWLIPRPCTQKGSLGGARALVPYAGVLAVGVGDTVASIFGSTMGEIRWPGTKKTFEGTMTSIFAQIISVALILIFDSGVDLNYSYAWILGSISTVSLLEAYTTQIDNLLLPLYLLILLMA
partner: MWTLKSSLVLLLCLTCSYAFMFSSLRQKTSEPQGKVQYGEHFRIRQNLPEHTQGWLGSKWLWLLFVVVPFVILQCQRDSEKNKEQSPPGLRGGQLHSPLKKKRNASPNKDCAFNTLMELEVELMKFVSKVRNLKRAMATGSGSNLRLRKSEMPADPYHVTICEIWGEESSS

Variants of: B1
Conditions: with cisd2_human CISD2, Q8N5K1

Row | Variant | effect of a mutation on the interaction
1 | I91V | with no effect
2 | E85K | disrupting interaction strength
3 | R28W | with no effect

Next, values leading:

Row | effect of a mutation on the interaction | Variant
4 | with no effect | Y371H
5 | disrupting interaction strength | E142K

Variants of: B2
Conditions: with katl1_human KATNAL1, Q9BW62
Chain of katl1_human KATNAL1, Q9BW62 (Q9BW62 whole entry): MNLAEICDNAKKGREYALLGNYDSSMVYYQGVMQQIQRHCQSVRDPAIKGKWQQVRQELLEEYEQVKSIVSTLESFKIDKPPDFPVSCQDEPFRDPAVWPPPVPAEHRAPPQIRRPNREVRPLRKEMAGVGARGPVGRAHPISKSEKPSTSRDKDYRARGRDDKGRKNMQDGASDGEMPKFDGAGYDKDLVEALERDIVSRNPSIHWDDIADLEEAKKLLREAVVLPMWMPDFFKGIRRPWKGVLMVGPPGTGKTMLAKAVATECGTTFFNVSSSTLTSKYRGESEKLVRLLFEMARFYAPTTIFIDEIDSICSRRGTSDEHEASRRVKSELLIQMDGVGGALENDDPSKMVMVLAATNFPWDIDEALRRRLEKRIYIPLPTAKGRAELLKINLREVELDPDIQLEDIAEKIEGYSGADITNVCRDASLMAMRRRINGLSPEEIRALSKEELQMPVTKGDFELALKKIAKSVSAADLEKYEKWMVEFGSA

Row | effect of a mutation on the interaction | Variant
6 | disrupting interaction strength | V94D

Variants of: B2
Conditions: with pax6_human PAX6, P26367
Chain of pax6_human PAX6, P26367 (P26367 whole entry): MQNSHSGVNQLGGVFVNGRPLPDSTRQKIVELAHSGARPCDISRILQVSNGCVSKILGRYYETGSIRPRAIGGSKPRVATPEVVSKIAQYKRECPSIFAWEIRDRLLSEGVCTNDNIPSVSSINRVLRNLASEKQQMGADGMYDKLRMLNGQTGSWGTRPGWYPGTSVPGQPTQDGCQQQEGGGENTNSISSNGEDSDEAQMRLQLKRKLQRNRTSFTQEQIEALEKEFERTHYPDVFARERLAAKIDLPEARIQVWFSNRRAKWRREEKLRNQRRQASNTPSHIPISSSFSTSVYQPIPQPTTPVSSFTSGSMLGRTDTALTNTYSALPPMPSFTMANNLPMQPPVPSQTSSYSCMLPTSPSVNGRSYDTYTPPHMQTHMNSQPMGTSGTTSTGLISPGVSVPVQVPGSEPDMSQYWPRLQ

Row | effect of a mutation on the interaction | Variant
7 | with no effect | V94D

Variants of: B2
Conditions: with taso2_human TASOR2, Q5VWN6
Chain of taso2_human TASOR2, Q5VWN6 (Q5VWN6 whole entry): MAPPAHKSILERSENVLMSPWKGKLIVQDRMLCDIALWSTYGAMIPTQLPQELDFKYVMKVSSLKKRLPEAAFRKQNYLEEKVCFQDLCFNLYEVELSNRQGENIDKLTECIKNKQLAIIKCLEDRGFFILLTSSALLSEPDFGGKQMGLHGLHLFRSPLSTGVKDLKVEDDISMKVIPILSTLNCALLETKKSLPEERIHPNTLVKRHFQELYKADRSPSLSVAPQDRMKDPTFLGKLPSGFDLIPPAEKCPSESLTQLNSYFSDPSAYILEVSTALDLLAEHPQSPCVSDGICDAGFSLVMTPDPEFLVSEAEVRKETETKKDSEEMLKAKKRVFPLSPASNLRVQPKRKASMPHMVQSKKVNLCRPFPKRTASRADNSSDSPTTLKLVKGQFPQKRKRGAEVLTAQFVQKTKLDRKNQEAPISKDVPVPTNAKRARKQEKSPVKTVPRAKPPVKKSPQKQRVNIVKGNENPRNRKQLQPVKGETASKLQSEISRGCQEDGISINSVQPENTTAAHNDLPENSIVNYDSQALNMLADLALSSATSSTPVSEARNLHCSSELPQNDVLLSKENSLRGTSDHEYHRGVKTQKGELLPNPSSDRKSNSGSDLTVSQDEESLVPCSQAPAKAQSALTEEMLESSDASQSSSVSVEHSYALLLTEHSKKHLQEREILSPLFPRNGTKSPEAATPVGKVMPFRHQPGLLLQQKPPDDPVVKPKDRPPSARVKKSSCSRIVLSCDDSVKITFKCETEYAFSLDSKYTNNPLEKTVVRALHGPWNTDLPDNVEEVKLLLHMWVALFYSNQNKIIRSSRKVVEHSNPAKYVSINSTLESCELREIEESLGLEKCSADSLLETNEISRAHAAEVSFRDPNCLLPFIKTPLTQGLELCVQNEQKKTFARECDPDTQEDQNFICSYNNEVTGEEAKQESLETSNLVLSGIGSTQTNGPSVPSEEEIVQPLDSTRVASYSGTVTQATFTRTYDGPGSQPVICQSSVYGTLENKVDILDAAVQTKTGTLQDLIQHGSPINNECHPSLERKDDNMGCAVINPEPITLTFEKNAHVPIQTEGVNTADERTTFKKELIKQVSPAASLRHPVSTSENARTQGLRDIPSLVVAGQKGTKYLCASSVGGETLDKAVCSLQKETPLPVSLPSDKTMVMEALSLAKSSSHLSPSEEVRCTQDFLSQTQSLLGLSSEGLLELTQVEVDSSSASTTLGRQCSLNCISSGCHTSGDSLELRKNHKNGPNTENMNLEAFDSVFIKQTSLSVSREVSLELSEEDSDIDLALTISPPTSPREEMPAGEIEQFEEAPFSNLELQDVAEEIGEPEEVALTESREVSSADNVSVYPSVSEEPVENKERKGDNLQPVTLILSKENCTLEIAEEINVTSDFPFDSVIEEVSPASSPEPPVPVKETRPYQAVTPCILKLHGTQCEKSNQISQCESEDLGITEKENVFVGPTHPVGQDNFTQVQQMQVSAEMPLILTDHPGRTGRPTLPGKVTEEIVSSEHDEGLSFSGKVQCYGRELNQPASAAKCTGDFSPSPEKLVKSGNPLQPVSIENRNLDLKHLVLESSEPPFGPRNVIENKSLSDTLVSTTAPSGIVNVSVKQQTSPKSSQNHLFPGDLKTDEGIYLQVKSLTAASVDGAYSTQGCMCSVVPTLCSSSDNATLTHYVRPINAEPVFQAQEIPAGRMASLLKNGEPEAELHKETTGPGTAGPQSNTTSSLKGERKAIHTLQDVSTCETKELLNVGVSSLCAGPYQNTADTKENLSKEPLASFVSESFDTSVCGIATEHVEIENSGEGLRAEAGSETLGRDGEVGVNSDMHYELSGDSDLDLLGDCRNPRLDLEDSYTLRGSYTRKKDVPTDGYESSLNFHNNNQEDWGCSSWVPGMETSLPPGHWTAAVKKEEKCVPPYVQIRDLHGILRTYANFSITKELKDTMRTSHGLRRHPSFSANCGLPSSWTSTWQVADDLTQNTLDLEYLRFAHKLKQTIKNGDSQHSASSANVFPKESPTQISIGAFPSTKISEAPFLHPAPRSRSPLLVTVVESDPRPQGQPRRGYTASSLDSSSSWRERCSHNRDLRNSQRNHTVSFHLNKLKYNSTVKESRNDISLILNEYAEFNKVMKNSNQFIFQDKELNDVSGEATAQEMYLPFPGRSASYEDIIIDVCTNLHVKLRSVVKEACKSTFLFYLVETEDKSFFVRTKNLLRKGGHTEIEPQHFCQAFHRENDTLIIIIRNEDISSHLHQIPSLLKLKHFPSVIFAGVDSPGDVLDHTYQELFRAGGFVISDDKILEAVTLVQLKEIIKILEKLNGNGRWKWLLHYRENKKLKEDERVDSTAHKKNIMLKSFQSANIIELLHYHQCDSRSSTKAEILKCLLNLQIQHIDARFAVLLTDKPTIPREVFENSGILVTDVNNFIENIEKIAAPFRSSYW

Row | effect of a mutation on the interaction | Variant
8 | with no effect | V94D

Variants of: B2
Conditions: with pnma5_human PNMA5, Q96PV4
Chain of pnma5_human PNMA5, Q96PV4 (Q96PV4 whole entry): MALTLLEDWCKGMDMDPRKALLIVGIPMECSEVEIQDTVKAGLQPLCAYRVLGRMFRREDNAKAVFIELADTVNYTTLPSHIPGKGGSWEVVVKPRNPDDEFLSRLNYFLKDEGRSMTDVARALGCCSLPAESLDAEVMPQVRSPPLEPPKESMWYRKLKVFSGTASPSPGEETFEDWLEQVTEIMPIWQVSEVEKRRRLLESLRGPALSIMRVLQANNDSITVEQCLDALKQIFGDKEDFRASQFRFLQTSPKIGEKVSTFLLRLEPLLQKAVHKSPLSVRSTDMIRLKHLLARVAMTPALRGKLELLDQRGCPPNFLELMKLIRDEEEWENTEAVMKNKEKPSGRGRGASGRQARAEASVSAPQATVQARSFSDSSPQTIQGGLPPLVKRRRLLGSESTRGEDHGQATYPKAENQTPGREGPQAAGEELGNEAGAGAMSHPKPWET

Row | effect of a mutation on the interaction | Variant
9 | with no effect | V94D

Variants of: B2
Conditions: with ms18b_human OIP5, O43482
Chain of ms18b_human OIP5, O43482 (O43482 whole entry): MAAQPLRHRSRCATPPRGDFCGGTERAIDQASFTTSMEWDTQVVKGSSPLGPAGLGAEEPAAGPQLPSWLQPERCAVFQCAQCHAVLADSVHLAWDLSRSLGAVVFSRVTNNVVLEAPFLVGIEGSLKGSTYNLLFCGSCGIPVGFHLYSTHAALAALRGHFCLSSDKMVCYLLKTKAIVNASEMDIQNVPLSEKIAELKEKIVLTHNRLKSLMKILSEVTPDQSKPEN

Row | effect of a mutation on the interaction | Variant
10 | disrupting interaction strength | V94D

Variants of: B2
Conditions: with cq050_human C17orf50, Q8WW18
Chain of cq050_human C17orf50, Q8WW18 (Q8WW18 whole entry): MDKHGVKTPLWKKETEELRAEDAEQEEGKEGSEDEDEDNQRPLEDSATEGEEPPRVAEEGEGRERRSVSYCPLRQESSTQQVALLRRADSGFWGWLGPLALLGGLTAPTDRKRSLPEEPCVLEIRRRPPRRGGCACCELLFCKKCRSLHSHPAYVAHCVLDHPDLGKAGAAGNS

Row | effect of a mutation on the interaction | Variant
11 | disrupting interaction strength | V94D

Variants of: B2
Conditions: with mb3l1_human MBD3L1, Q8WWY6

Row | effect of a mutation on the interaction | Variant
12 | with no effect | V94D

Variants of: B2
Conditions: with PRR5, P85299-2
Chain of PRR5, P85299-2 (P85299 other isoform, or with tags, fused parts or gaps): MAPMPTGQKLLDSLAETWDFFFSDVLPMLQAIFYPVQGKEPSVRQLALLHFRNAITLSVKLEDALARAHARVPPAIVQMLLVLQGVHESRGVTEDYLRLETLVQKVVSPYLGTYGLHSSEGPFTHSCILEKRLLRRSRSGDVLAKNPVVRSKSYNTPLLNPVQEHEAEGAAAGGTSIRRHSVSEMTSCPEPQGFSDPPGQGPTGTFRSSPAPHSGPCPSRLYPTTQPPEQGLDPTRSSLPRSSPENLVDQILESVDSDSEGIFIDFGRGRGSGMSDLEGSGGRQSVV

Row | effect of a mutation on the interaction | Variant
13 | disrupting interaction strength | V94D

Variants of: B2
Conditions: with cenps_human CENPS

Row | effect of a mutation on the interaction | Variant
14 | disrupting interaction strength | V94D

Variants of: B2
Conditions: with zn552_human ZNF552, Q9H707
Chain of zn552_human ZNF552, Q9H707 (Q9H707 whole entry): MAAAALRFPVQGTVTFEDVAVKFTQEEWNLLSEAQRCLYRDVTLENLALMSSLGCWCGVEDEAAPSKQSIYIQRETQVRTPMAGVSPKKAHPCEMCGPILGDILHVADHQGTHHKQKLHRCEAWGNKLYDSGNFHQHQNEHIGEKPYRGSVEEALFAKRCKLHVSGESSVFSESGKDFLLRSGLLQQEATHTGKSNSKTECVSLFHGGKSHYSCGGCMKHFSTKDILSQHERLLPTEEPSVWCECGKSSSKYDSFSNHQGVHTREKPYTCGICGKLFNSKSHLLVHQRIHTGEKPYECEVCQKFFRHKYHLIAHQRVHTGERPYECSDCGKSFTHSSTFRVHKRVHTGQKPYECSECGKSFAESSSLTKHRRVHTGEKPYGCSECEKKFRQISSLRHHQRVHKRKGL

Row | effect of a mutation on the interaction | Variant
15 | disrupting interaction strength | V94D

Variants of: B3
Conditions: with marh7_human MARCHF7, Q9H992

Row | effect of a mutation on the interaction | Variant
16 | with no effect | V94D

Variants of: B4
Conditions: with myog_human MYOG

Row | effect of a mutation on the interaction | Variant
17 | disrupting interaction strength | V94D

Variants of: B5
Conditions: with rcas1_human EBAG9, O00559

Row | effect of a mutation on the interaction | Variant
18 | with no effect | L47F
19 | with no effect | R6T
20 | with no effect | G123D

Variants of: B6
Conditions: with CRB3, Q9BUF7-2

Row | effect of a mutation on the interaction | Variant
21 | disrupting interaction strength | P182L

Variants of: B7
Conditions: with FAM209A

Row | effect of a mutation on the interaction | Variant
22 | disrupting interaction strength | Y441S
